Experimental data taken from article PMC8607333, “Real-time kinetic studies of Mycobacterium tuberculosis LexA–DNA interaction” (Bioscience Reports, 2021).

T1: LexAΔ18aa (Mycobacterium tuberculosis, UniProt P9WHR7 1-236, del94-111)
T1 sequence: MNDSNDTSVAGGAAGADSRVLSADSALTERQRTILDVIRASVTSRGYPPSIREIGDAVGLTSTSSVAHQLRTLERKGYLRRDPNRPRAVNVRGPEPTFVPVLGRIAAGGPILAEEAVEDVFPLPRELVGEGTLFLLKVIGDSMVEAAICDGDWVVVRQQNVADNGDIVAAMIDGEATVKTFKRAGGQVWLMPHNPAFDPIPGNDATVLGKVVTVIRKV

T2: LexAΔ24aa (Mycobacterium tuberculosis, UniProt P9WHR7 25-236, del1-24)
T2 sequence: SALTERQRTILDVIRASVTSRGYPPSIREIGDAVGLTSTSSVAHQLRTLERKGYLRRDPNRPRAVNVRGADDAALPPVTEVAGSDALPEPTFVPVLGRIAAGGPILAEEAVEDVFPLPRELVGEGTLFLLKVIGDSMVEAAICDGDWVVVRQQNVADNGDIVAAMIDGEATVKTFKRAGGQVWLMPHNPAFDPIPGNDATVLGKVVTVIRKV

T3: LexA WT (Mycobacterium tuberculosis, UniProt P9WHR7 1-236)
T3 sequence: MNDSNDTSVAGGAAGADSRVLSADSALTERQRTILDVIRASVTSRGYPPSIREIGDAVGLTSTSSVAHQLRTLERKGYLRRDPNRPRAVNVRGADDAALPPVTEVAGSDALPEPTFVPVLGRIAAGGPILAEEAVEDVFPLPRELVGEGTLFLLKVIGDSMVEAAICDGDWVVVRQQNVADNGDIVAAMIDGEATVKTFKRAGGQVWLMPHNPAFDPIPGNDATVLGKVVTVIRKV

B1: rv3074_44mer SOS box, biotinylated (dsDNA)
DNA 1: GCAGGCTGCTATTCTCGAACACATGTTCGAGACATTGACCGCGA
DNA 2: TCGCGGTCAATGTCTCGAACATGTGTTCGAGAATAGCAGCCTGC
B2: lexA_44mer SOS box, biotinylated (dsDNA)
DNA 1: CCGGAACACGCCTGTCGAACACATGTTTGATTCTTGGTGCGAAT
DNA 2: ATTCGCACCAAGAATCAAACATGTGTTCGACAGGCGTGTTCCGG
B3: recA_44mer SOS box, biotinylated (dsDNA)
DNA 1: GTGTCACACTTGAATCGAACAGGTGTTCGGCTACTGTGGTGATC
DNA 2: GATCACCACAGTAGCCGAACACCTGTTCGATTCAAGTGTGACAC
B4: dnaE2_44mer SOS box, biotinylated (dsDNA)
DNA 1: ACAACTGCGCTGTATCGAACAATTGTTCGATATACTGTGGAATG
DNA 2: CATTCCACAGTATATCGAACAATTGTTCGATACAGCGCAGTTGT
B5: dnaE2 44mer SOS box, 32P end-labeled (dsDNA)
DNA 1: B4 DNA 1
DNA 2: B4 DNA 2

These binders were tested against T1, LexAΔ18aa (assay: BLI; pH 7.5; BLI: 10 mM HEPES pH 7.5, 50 mM NaCl, 25 C (pH 4 buffer not stated), 1:1 global fit; EMSA: 10 mM HEPES pH 7.5, 50 mM NaCl, 30 min on ice, 3.5 nM DNA). Conditions: protein: recombinant; tags: 6xHis; chain copies: 2; label: 5' biotin on strand 1; blunt.
B1 showed a Kd of 43.5 ± 0.24 nM.
Binder B2 has a Kd of 34.53 ± 0.25 nM.
B3 gave a Kd of 32.55 ± 0.22 nM.

The binders below were run against T2, LexAΔ24aa in the same assay as above. Conditions: protein: recombinant; tags: N-term 6xHis (pET28a); chain copies: 2; label: 5' biotin on strand 1; blunt.
Binder B4 has a Kd of 4.94 ± 0.03 nM.
With B1 the Kd was 2.75 ± 0.04 nM.
In the case of B2, the Kd is reported as 2.36 ± 0.02 nM.
Binder B3 has a Kd of 1.67 ± 0.02 nM.

What follows are binders tested against T1, LexAΔ18aa (assay: EMSA; 128 nM protein; BLI: 10 mM HEPES pH 7.5, 50 mM NaCl, 25 C (pH 4 buffer not stated), 1:1 global fit; EMSA: 10 mM HEPES pH 7.5, 50 mM NaCl, 30 min on ice, 3.5 nM DNA). Conditions: protein: recombinant; tags: 6xHis; chain copies: 2; label: 32P end label, no biotin; blunt.
B5: binds.

Each binder was assayed against T3, LexA WT (assay: BLI; pH 7.5; BLI: 10 mM HEPES pH 7.5, 50 mM NaCl, 25 C (pH 4 buffer not stated), 1:1 global fit; […]). Conditions: protein: recombinant; tags: N-term 6xHis (pET28a); chain copies: 2; label: 5' biotin on strand 1; blunt.
B4 was tested, and the Kd was 2.16 ± 0.01 nM.
B1 was tested, and the Kd was 3.86 ± 0.03 nM.
Binder B2 has a Kd of 0.98 ± 0.01 nM.
Work on B3 yielded a Kd of 3.63 ± 0.02 nM.
